Data on three molecules can be found in patent EP4442322A1.

The assay concerns the target ASGPR of the murine amino acid sequence (murine). In words: cell-based or functional assay.

Chain of ASGPR of the murine amino acid sequence (murine) (P34927 whole entry, chain 1 of 2): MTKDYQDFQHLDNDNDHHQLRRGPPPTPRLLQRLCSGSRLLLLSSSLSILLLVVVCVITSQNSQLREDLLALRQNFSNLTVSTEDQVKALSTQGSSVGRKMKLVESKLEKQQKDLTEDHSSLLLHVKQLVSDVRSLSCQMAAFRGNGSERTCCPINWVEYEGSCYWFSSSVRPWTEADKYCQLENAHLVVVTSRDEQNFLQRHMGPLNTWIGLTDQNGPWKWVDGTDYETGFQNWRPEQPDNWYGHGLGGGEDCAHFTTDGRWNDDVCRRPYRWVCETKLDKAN
Chain of ASGPR of the murine amino acid sequence (murine) (P24721 whole entry, chain 2 of 2, further chain): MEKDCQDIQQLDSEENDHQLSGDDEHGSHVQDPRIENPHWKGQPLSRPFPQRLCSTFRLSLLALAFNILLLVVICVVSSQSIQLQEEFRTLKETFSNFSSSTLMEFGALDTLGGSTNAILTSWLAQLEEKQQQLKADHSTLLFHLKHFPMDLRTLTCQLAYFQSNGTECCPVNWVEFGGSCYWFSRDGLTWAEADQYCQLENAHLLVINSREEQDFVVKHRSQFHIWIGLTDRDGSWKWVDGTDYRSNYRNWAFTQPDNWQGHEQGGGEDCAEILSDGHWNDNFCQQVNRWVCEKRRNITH

B1: CAR having the scFv of SEQ ID NO: 26 (C3), murine Ig-construct (mIg) (protein)
chain: VHSQVTLKESGGGLVQPGGSLRLSCAASGFTFSSYAMSWVRQAPGKGLEWVSAISGSGGSTYYADSVKGRFTISRDNSKNTLYLQMNSLRAEDTAVYYCAKDLKQWLEDYWGQGTLVTVSSGSASAPKLEEGEFSEARVDVVMTQSPSTLSASVGDRVTITCRASQSIGPWLAWYQQKPGEAPKLLLYKASILEGGVPSRFSGRGSGTEFTLTISSLQPDDFATYYCQQYNTFGPTFGQGTKLEIKRTVAAPSVFDPVPRDGGCKPCICTVPRDGGCKPCICTVPEVSSVFIFPPKPKDVLTITLTPKVTCVVVDISKDDPEVQFSWFVDDVEVHTAQTQPREEQFNSTFRSVSELPIMHQDWLNGKEFKCRVNSAAFPAPIEKTISKTKGRPKAPQVCTIPPPKEQMAKDKVSLTCMITDFFPEDITVEWQWNGQPAENYKNTQPIMDTDGSYFVYSKLNVQKSNWEAGNTFTCSVLHEGLHNHHTEKSLSHSPGVFLACVLGGSFGFLGFLGLCILCCVNSRRNRLLQSDYMNMTPRRPGLTRKPYQPYAPARDFAAYRPLRAKFSRSAETAANLQDPNQLYNELNLGRREEYDVLEKKRARDPEMGGKQQRRRNPQEGVYNALQKDKMAEAYSEIGTKGERRRGKGHDGLYQGLSTATKDTYDALHMQTLAPR
For B1, the activated cells (GFP), Q2 (Fig. 9E) worked out at 3.7%; the activated cells (GFP), Q2 and Q3 in total (Fig. 9E) was determined as 6.06%; the activated cells (GFP), Q3 (Fig. 9E) came to 2.36%.

B2: CAR having the scFv of SEQ ID NO: 24 (C11), murine Ig-construct (mIg) (protein)
chain: QIQLVQSGGGLVQPGGSLRLSCAGSGYTFSDHYMDWVRQAPGKGLEWVGRIRYKANSYSTEYAASVKGRFTISRDDSRNSLFLQMNSLKTEDTAVYYCARIRDRYYFDYWGQGALVTVSSGSASAPKLEEGEFSEARVQSVLTQPPSVSGAPGQRVTISCTGSSSNVGAGYDVHWYQQLPGAAPKLLIYGNSNRPSGVPDRFSGSKSGTSASLAISGLQSEDEADYYCAAWDDSLNGVVFGGGTKLTVLGQPKAAPSVTLFPPSSAAAGSEQKLISEEDLSHHHHHHVPRDGGCKPCICTVPEVSSVFIFPPKPKDVLTITLTPKVTCVVVDISKDDPEVQFSWFVDDVEVHTAQTQPREEQFNSTFRSVSELPIMHQDWLNGKEFKCRVNSAAFPAPIEKTISKTKGRPKAPQVCTIPPPKEQMAKDKVSLTCMITDFFPEDITVEWQWNGQPAENYKNTQPIMDTDGSYFVYSKLNVQKSNWEAGNTFTCSVLHEGLHNHHTEKSLSHSPGVFLACVLGGSFGFLGFLGLCILCCVNSRRNRLLQSDYMNMTPRRPGLTRKPYQPYAPARDFAAYRPLRAKFSRSAETAANLQDPNQLYNELNLGRREEYDVLEKKRARDPEMGGKQQRRRNPQEGVYNALQKDKMAEAYSEIGTKGERRRGKGHDGLYQGLSTATKDTYDALHMQTLAPR
B2 registered an activated cells (GFP), Q2 (Fig. 6E) of 3.41%; an activated cells (GFP), Q2 and Q3 in total (Fig. 6E) of 13.3%; an activated cells (GFP), Q3 (Fig. 6E) of 9.86%.

B3: CAR having the scFv of SEQ ID NO: 24 (C11), murine CD8 construct (mCD8) (protein)
chain: QIQLVQSGGGLVQPGGSLRLSCAGSGYTFSDHYMDWVRQAPGKGLEWVGRIRYKANSYSTEYAASVKGRFTISRDDSRNSLFLQMNSLKTEDTAVYYCARIRDRYYFDYWGQGALVTVSSGSASAPKLEEGEFSEARVQSVLTQPPSVSGAPGQRVTISCTGSSSNVGAGYDVHWYQQLPGAAPKLLIYGNSNRPSGVPDRFSGSKSGTSASLAISGLQSEDEADYYCAAWDDSLNGVVFGGGTKLTVLGQPKAAPSVTLFPPSSAAAGSEQKLISEEDLSHHHHHHSSVVPVLQKVNSTTTKPVLRTPSPVHPTGTSQPQRPEDCRPRGSVKGTGLDFACDIYIWAPLAGICVALLLSLIITLICYHRWTNSRRNRLLQSDYMNMTPRRPGLTRKPYQPYAPARDFAAYRPRAKFSRSAETAANLQDPNQLYNELNLGRREEYDVLEKKRARDPEMGGKQQRRRNPQEGVYNALQKDKMAEAYSEIGTKGERRRGKGHDGLYQGLSTATKDTYDALHMQTLAPR
Molecule B3 registered an activated cells (GFP), Q2 (Fig. 6F) of 4.04%; an activated cells (GFP), Q2 and Q3 in total (Fig. 6F) of 9.44%; an activated cells (GFP), Q3 (Fig. 6F) of 5.4%.
